T1: LIN7A, O14910
T1 sequence (O14910 103-200, limits assumed, looked up): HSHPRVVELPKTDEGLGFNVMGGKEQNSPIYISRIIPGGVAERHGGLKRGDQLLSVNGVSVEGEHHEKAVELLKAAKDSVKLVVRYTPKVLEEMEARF

T2: SNTA1, Q13424
T2 sequence (Q13424 82-180, limits assumed, looked up): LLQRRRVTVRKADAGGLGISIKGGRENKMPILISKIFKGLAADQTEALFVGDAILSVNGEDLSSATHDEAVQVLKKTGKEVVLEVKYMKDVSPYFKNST

T3: GRIP1_2, Q9Y3R0
T3 sequence (Q9Y3R0 145-248, limits assumed, looked up): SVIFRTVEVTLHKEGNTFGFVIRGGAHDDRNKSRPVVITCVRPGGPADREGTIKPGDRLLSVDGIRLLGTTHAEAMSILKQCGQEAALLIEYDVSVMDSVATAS

T4: PTPN13_1, Q12923
T4 sequence (Q12923 1088-1188, limits assumed, looked up): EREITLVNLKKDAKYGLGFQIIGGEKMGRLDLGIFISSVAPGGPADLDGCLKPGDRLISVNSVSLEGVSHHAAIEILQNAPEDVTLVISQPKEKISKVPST

T5: MPP7, Q5T2T1
T5 sequence (Q5T2T1 134-230, limits assumed, looked up): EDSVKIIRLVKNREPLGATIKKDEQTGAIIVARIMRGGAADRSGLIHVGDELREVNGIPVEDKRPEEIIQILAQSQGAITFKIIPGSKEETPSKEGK

T6: NHERF3_3, Q5T2W1
T6 sequence (Q5T2W1 238-333, limits assumed, looked up): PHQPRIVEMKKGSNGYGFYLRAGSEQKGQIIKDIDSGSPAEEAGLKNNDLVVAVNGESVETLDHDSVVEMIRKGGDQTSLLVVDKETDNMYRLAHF

T7: APBA2_2, Q99767
T7 sequence (Q99767 654-744, limits assumed, looked up): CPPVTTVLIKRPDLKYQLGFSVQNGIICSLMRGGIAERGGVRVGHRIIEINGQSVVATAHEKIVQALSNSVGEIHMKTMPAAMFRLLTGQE

T8: LNX2_2, Q8N448
T8 sequence (Q8N448 334-432, limits assumed, looked up): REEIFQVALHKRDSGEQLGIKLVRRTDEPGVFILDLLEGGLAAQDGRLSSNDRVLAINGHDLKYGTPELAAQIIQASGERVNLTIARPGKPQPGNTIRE

T9: APBA1_2, Q02410
T9 sequence (Q02410 742-832, limits assumed, looked up): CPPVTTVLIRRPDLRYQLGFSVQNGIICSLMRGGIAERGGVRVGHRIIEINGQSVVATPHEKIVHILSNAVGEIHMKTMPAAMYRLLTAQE

T10: SNTG1, Q9NSN8
T10 sequence (Q9NSN8 52-150, limits assumed, looked up): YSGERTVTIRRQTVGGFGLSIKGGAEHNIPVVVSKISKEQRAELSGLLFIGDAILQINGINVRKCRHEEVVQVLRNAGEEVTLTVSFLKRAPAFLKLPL

T11: SYNJ2BP, P57105
T11 sequence (P57105 8-110, limits assumed, looked up): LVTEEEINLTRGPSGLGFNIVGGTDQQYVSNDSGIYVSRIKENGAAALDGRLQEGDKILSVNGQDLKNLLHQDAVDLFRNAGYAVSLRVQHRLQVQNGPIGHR

T12: ARHGEF11, O15085
T12 sequence (O15085 42-136, limits assumed, looked up): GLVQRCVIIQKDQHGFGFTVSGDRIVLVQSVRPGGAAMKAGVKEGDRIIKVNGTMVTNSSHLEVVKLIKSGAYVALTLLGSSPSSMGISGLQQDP


Experiments:
Experiment in all cases: holdup assay
Set-up in all cases: key: below the threshold = too weak to quantify, mostly under pKd 3.1 to 4
Details in all cases: plain residues with an end cap or a label only (N-terminal biotin on a linker: ttds)
PICK1, Q9NRD5 = biological target: PICK1, Q9NRD5
LIN7A, O14910 = biological target: T1, LIN7A, O14910
SNTA1, Q13424 = biological target: T2, SNTA1, Q13424
DLG4_2, P78352 = biological target: DLG4_2, P78352
GRIP1_2, Q9Y3R0 = biological target: T3, GRIP1_2, Q9Y3R0
MAGI1_1, Q96QZ7 = biological target: MAGI1_1, Q96QZ7
PTPN13_1, Q12923 = biological target: T4, PTPN13_1, Q12923
GRIP2_4, Q9C0E4 = biological target: GRIP2_4, Q9C0E4
MPP7, Q5T2T1 = biological target: T5, MPP7, Q5T2T1
NHERF3_3, Q5T2W1 = biological target: T6, NHERF3_3, Q5T2W1
APBA2_2, Q99767 = biological target: T7, APBA2_2, Q99767
PDZRN4_1, Q6ZMN7 = biological target: PDZRN4_1, Q6ZMN7
NOS1, P29475 = biological target: NOS1, P29475
PARD3_3, Q8TEW0 = biological target: PARD3_3, Q8TEW0
LNX2_2, Q8N448 = biological target: T8, LNX2_2, Q8N448
GIPC2, Q8TF65 = biological target: GIPC2, Q8TF65
Inadl_8, Q8NI35 = biological target: Inadl_8, Q8NI35
APBA1_2, Q02410 = biological target: T9, APBA1_2, Q02410
SNTG1, Q9NSN8 = biological target: T10, SNTG1, Q9NSN8
Inadl_4, Q8NI35 = biological target: Inadl_4, Q8NI35
SYNJ2BP, P57105 = biological target: T11, SYNJ2BP, P57105
DLG4_1, P78352 = biological target: DLG4_1, P78352
Inadl_2, Q8NI35 = biological target: Inadl_2, Q8NI35
SNX27, Q96L92 = biological target: SNX27, Q96L92
ARHGEF11, O15085 = biological target: T12, ARHGEF11, O15085
IL16_4, Q14005 = biological target: IL16_4, Q14005
Chain of IL16_4, Q14005 (Q14005 1229-1329): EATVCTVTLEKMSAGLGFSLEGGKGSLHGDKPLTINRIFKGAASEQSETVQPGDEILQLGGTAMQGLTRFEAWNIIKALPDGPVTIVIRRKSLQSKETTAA

Chain of NOS1, P29475 (P29475 9-101): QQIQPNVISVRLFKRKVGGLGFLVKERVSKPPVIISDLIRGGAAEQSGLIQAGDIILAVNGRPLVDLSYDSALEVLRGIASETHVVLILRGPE
Chain of Inadl_2, Q8NI35 (Q8NI35 238-335): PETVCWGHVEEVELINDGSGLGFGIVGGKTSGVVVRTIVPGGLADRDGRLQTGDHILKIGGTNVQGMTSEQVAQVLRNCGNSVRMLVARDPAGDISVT
Chain of DLG4_2, P78352 (P78352 155-259): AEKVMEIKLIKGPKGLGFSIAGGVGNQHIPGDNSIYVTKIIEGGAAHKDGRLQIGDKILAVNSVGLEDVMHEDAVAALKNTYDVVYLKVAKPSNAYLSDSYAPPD
Chain of GIPC2, Q8TF65 (Q8TF65 112-203): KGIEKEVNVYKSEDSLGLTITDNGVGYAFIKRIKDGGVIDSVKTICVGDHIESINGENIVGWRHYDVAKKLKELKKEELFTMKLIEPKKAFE
Chain of GRIP2_4, Q9C0E4 (Q9C0E4 446-548): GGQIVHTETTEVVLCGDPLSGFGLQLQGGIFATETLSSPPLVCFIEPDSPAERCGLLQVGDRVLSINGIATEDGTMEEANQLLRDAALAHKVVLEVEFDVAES
Chain of Inadl_4, Q8NI35 (Q8NI35 547-651): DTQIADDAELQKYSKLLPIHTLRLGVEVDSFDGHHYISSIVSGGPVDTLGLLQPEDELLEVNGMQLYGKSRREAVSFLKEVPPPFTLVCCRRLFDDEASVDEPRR
Chain of PDZRN4_1, Q6ZMN7 (Q6ZMN7 213-318): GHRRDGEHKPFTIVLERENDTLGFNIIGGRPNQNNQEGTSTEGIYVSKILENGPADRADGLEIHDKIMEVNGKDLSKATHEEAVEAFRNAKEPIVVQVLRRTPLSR
Chain of DLG4_1, P78352 (P78352 62-152): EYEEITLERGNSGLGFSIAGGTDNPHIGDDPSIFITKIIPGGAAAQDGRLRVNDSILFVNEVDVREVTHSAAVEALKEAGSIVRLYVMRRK
Chain of MAGI1_1, Q96QZ7 (Q96QZ7 1-106): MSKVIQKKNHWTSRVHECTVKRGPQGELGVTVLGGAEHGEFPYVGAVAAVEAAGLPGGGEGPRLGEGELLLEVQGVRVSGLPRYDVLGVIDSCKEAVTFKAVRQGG
Chain of PICK1, Q9NRD5 (Q9NRD5 17-115): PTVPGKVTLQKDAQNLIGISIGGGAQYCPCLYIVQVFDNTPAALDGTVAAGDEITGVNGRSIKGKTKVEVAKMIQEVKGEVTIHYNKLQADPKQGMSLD
Chain of Inadl_8, Q8NI35 (Q8NI35 1425-1530): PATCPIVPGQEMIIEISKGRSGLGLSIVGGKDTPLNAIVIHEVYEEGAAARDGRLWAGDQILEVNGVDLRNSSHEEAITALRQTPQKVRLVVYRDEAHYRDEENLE
Chain of PARD3_3, Q8TEW0 (Q8TEW0 582-685): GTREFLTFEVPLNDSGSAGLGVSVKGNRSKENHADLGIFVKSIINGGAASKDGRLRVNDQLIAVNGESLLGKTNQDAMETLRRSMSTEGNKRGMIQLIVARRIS

Binder	pKd (PICK1, Q9NRD5)	pKd (LIN7A, O14910)	pKd (SNTA1, Q13424)	pKd (DLG4_2, P78352)	pKd (GRIP1_2, Q9Y3R0)	pKd (MAGI1_1, Q96QZ7)	pKd (PTPN13_1, Q12923)	pKd (GRIP2_4, Q9C0E4)	pKd (MPP7, Q5T2T1)	pKd (NHERF3_3, Q5T2W1)	pKd (APBA2_2, Q99767)	pKd (PDZRN4_1, Q6ZMN7)	pKd (NOS1, P29475)	pKd (PARD3_3, Q8TEW0)	pKd (LNX2_2, Q8N448)	pKd (GIPC2, Q8TF65)	pKd (Inadl_8, Q8NI35)	pKd (APBA1_2, Q02410)	pKd (SNTG1, Q9NSN8)	pKd (Inadl_4, Q8NI35)	also measured
QPGTPTRTAV [MAP2K2, P36507]	below the threshold	below the threshold	below the threshold	4.12	below the threshold	below the threshold	3.66	below the threshold	below the threshold	below the threshold	below the threshold	below the threshold	3.96	3.54	below the threshold	below the threshold	3.78	3.62	3.66	below the threshold	pKd (SYNJ2BP, P57105): below the threshold; pKd (DLG4_1, P78352): below the threshold; pKd (Inadl_2, Q8NI35): below the threshold; pKd (SNX27, Q96L92): below the threshold; pKd (ARHGEF11, O15085): below the threshold; pKd (IL16_4, Q14005): below the threshold
CNTVTVETVV [MAS1, P04201]	below the threshold	below the threshold	4.34	4.45	3.61	below the threshold	3.57	3.55	below the threshold	3.54	below the threshold	below the threshold	below the threshold	below the threshold	4.13	below the threshold	below the threshold	below the threshold	3.86	below the threshold	pKd (SYNJ2BP, P57105): 3.98; pKd (DLG4_1, P78352): 3.98; pKd (Inadl_2, Q8NI35): below the threshold; pKd (SNX27, Q96L92): 4.57; pKd (ARHGEF11, O15085): below the threshold; pKd (IL16_4, Q14005): 3.6
RRVRKLPSTTL [RPS6KA1, Q15418]	below the threshold	below the threshold	3.87	below the threshold	below the threshold	3.64	below the threshold	below the threshold	3.61	3.61	below the threshold	4.13	3.7	3.71	3.6	below the threshold	below the threshold	below the threshold	3.88	below the threshold	pKd (SYNJ2BP, P57105): 3.82; pKd (DLG4_1, P78352): 3.68; pKd (Inadl_2, Q8NI35): below the threshold; pKd (SNX27, Q96L92): 3.5; pKd (ARHGEF11, O15085): 4.44; pKd (IL16_4, Q14005): below the threshold
